One substance from publication PMC6754399 can be followed below.

This assay deals with Wild-type CFTR (cystic fibrosis transmembrane conductance regulator) N-terminally labelled with GFP or RFP (UniProt P13569). The experiment in a line: FRET or BRET; acceptor-photobleaching FRET between GFP-CFTR (donor) and RFP-CFTR (acceptor) in fixed HEK293T cells, measured intracellularly, basal conditions (air exposure).

In turn, “Wild-type CFTR (cystic fibrosis transmembrane conductance regulator) N-terminally labelled with GFP or RFP (from UniProt P13569 1-1480) (natural protein)” registered an FRET efficiency (%E) of 0%.
